Reference: patent US20240368250A1 (Ablynx, published 2024)

Experiments:
[1] = molecular target: T1, Human FcRn (biotinylated human FcRn) (human, UniProt P61769 21-119); assay: SPR Biacore 8K+, biotinylated hFcRn on SA chip (~500-600 RU), pH 6.0, bivalent analyte fit;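 further: analytes were Fc proteins binding to biotinylated human FcRn captured on a Series S streptavidin sensor chip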
T1 construct: Biotinylated human FcRn captured on a Series S Sensor Chip SA; also called human neonatal Fc receptor; hFcRn

[2] = molecular target: T1, Human FcRn (biotinylated human FcRn); assay: SPR Biacore 8K+, biotinylated hFcRn on SA chip (~500-600 RU), pH 6.0, bivalent analyte fit (KD1)
[3] = molecular target: T1, Human FcRn (biotinylated human FcRn); assay: SPR Biacore 8K+, biotinylated hFcRn on SA chip (~500-600 RU), pH 6.0, bivalent analyte fit (kd1)
[4] = molecular target: T1, Human FcRn (biotinylated human FcRn); assay: SPR Biacore 8K+, biotinylated hFcRn on SA chip (~500-600 RU), pH 6.0, bivalent analyte fit (ka1)
[5] = molecular target: Mouse serum albumin (MSA; Albumin Bioscience Cat No. 2601) (mouse, UniProt P07724 25-608); assay: SPR Biacore 8K+, MSA on C1 chip, pH 7.4, 1:1 fit (off-rate only)
[6] = molecular target: Human serum albumin (HSA; Sigma-Aldrich Cat No. A8763) (human, UniProt P02768 25-609); assay: SPR Biacore 8K+, HSA on C1 chip, pH 7.4, 1:1 fit

B1: TPP-66147 (Fc fusion)
chain 1: DVQLVESGGGVVQAGGSLSISCAASGGSLSNYVLGWFRQAPGKEREFVAAINWRGDITIGPPNVEGRFTISRDNAKNTGYLQMNSLAPDDTALYYCGAGTPLNPGAYIYDWSYDYWGRGTLVTVSSDKTHTCPPCPAPEAAGGPSVFLFPPKPKDTLMISRTPEVTCVVVDVSQEDPEVQFNWYVDGVEVHNAKTKPREEQFNSTYRVVSVLTVLHQDWLNGKEYKCKVSNKGLPSSIEKTISKAKGQPREPQVYTLPPCQEEMTKNQVSLWCLVKGFYPSDIAVEWESNGQPENNYKTTPPVLDSDGSFFLYSKLTVDKSRWQEGNVFSCSVMHEALHNHYTQKSLSLSLGGGGGSGGGGSGGGGSGGGGSGGGGSGGGGSGGGGSEVQLVESGGGVVQPGGSLRLSCAASGFTFRSFGMSWVRQAPGKGPEWVSSISGSGSDTLYADSVKGRFTISRDNSKNTLYLQMNSLRPEDTALYYCTIGGSLSRSSQGTLVTVSSA
chain 2: DVQLVESGGGVVQAGGSLSISCAASGGSLSNYVLGWFRQAPGKEREFVAAINWRGDITIGPPNVEGRFTISRDNAKNTGYLQMNSLAPDDTALYYCGAGTPLNPGAYIYDWSYDYWGRGTLVTVSSDKTHTCPPCPAPEAAGGPSVFLFPPKPKDTLMISRTPEVTCVVVDVSQEDPEVQFNWYVDGVEVHNAKTKPREEQFNSTYRVVSVLTVLHQDWLNGKEYKCKVSNKGLPSSIEKTISKAKGQPREPQVCTLPPSQEEMTKNQVSLSCAVKGFYPSDIAVEWESNGQPENNYKTTPPVLDSDGSFFLVSKLTVDKSRWQEGNVFSCSVMHEALHNRFTQKSLSLSLG
notes: IgG4 FALA Fc knob-in-hole, C-terminal ALB23002 via 35GS
KD2 [1]: 3.17 M
ka2 [1]: 3.3e-05 1/RUs
kd2 [1]: 0.000105 s⁻¹
Kd [2]: 1060 nM
koff [3]: 0.107 s⁻¹
kon [4]: 101000 M⁻¹ s⁻¹
koff [5]: 0.075 s⁻¹
Kd [6]: 27.1 nM
koff [6]: 0.00119 s⁻¹
kon [6]: 43800 M⁻¹ s⁻¹

B2: TPP-66149 (Fc fusion)
chain 1: DVQLVESGGGVVQAGGSLSISCAASGGSLSNYVLGWFRQAPGKEREFVAAINWRGDITIGPPNVEGRFTISRDNAKNTGYLQMNSLAPDDTALYYCGAGTPLNPGAYIYDWSYDYWGRGTLVTVSSDKTHTCPPCPAPEAAGGPSVFLFPPKPKDTLMISRTPEVTCVVVDVSQEDPEVQFNWYVDGVEVHNAKTKPREEQFNSTYRVVSVLTVLHQDWLNGKEYKCKVSNKGLPSSIEKTISKAKGQPREPQVYTLPPCQEEMTKNQVSLWCLVKGFYPSDIAVEWESNGQPENNYKTTPPVLDSDGSFFLYSKLTVDKSRWQEGNVFSCSVMHEALHNHYTQKSLSLSLGGGGGSGGGGSGGGGSGGGGSGGGGSGGGGSGGGGSEVQLVESGGGVVQPGDSLRLSCAASGGTFSTYVMGWFRQAPGKEREFVSAISQNSIHTYYANSVKGRFTISRDNSKNTVYLQLNSLRPEDTALYYCAASRFTSWYTADYEYDYWGQGTLVTVSSA
chain 2: DVQLVESGGGVVQAGGSLSISCAASGGSLSNYVLGWFRQAPGKEREFVAAINWRGDITIGPPNVEGRFTISRDNAKNTGYLQMNSLAPDDTALYYCGAGTPLNPGAYIYDWSYDYWGRGTLVTVSSDKTHTCPPCPAPEAAGGPSVFLFPPKPKDTLMISRTPEVTCVVVDVSQEDPEVQFNWYVDGVEVHNAKTKPREEQFNSTYRVVSVLTVLHQDWLNGKEYKCKVSNKGLPSSIEKTISKAKGQPREPQVCTLPPSQEEMTKNQVSLSCAVKGFYPSDIAVEWESNGQPENNYKTTPPVLDSDGSFFLVSKLTVDKSRWQEGNVFSCSVMHEALHNRFTQKSLSLSLG
notes: IgG4 FALA Fc knob-in-hole, C-terminal T023500029 via 35GS
KD2 [1]: 3.39 M
ka2 [1]: 4.37e-05 1/RUs
kd2 [1]: 0.000148 s⁻¹
Kd [2]: 1200 nM
koff [3]: 0.104 s⁻¹
kon [4]: 87000 M⁻¹ s⁻¹
koff [5]: 0.000503 s⁻¹
Kd [6]: 8.2 nM
koff [6]: 0.000511 s⁻¹
kon [6]: 62300 M⁻¹ s⁻¹

B3: TPP-66148 (Fc fusion)
chain 1: DVQLVESGGGVVQAGGSLSISCAASGGSLSNYVLGWFRQAPGKEREFVAAINWRGDITIGPPNVEGRFTISRDNAKNTGYLQMNSLAPDDTALYYCGAGTPLNPGAYIYDWSYDYWGRGTLVTVSSDKTHTCPPCPAPEAAGGPSVFLFPPKPKDTLMISRTPEVTCVVVDVSQEDPEVQFNWYVDGVEVHNAKTKPREEQFNSTYRVVSVLTVLHQDWLNGKEYKCKVSNKGLPSSIEKTISKAKGQPREPQVYTLPPCQEEMTKNQVSLWCLVKGFYPSDIAVEWESNGQPENNYKTTPPVLDSDGSFFLYSKLTVDKSRWQEGNVFSCSVMHEALHNHYTQKSLSLSLGGGGGSGGGGSGGGGSGGGGSGGGGSGGGGSGGGGSEVQLVESGGGVVQPGGSLRLSCAASGLTFSSYAMGWFRQAPGKERERVVSISRGGGYTYYADSVKGRFTISRDNSKNTVYLQMNSLRPEDTALYYCAAARYWATGSEYEFDYWGQGTLVTVSSA
chain 2: DVQLVESGGGVVQAGGSLSISCAASGGSLSNYVLGWFRQAPGKEREFVAAINWRGDITIGPPNVEGRFTISRDNAKNTGYLQMNSLAPDDTALYYCGAGTPLNPGAYIYDWSYDYWGRGTLVTVSSDKTHTCPPCPAPEAAGGPSVFLFPPKPKDTLMISRTPEVTCVVVDVSQEDPEVQFNWYVDGVEVHNAKTKPREEQFNSTYRVVSVLTVLHQDWLNGKEYKCKVSNKGLPSSIEKTISKAKGQPREPQVCTLPPSQEEMTKNQVSLSCAVKGFYPSDIAVEWESNGQPENNYKTTPPVLDSDGSFFLVSKLTVDKSRWQEGNVFSCSVMHEALHNRFTQKSLSLSLG
notes: IgG4 FALA Fc knob-in-hole, C-terminal ALBX00002 via 35GS
KD2 [1]: 2.14 M
ka2 [1]: 3.33e-05 1/RUs
kd2 [1]: 7.12e-05 s⁻¹
Kd [2]: 1030 nM
koff [3]: 0.11 s⁻¹
kon [4]: 107000 M⁻¹ s⁻¹
koff [5]: 0.00187 s⁻¹
Kd [6]: 5.1 nM
koff [6]: 0.000247 s⁻¹
kon [6]: 48500 M⁻¹ s⁻¹

B4: TPP-66151 (Fc fusion)
chain 1: DVQLVESGGGVVQAGGSLSISCAASGGSLSNYVLGWFRQAPGKEREFVAAINWRGDITIGPPNVEGRFTISRDNAKNTGYLQMNSLAPDDTALYYCGAGTPLNPGAYIYDWSYDYWGRGTLVTVSSDKTHTCPPCPAPEAAGGPSVFLFPPKPKDTLMISRTPEVTCVVVDVSQEDPEVQFNWYVDGVEVHNAKTKPREEQFNSTYRVVSVLTVLHQDWLNGKEYKCKVSNKGLPSSIEKTISKAKGQPREPQVYTLPPCQEEMTKNQVSLWCLVKGFYPSDIAVEWESNGQPENNYKTTPPVLDSDGSFFLYSKLTVDKSRWQEGNVFSCSVMHEALHNHYTQKSLSLSLG
chain 2: DVQLVESGGGVVQAGGSLSISCAASGGSLSNYVLGWFRQAPGKEREFVAAINWRGDITIGPPNVEGRFTISRDNAKNTGYLQMNSLAPDDTALYYCGAGTPLNPGAYIYDWSYDYWGRGTLVTVSSDKTHTCPPCPAPEAAGGPSVFLFPPKPKDTLMISRTPEVTCVVVDVSQEDPEVQFNWYVDGVEVHNAKTKPREEQFNSTYRVVSVLTVLHQDWLNGKEYKCKVSNKGLPSSIEKTISKAKGQPREPQVCTLPPSQEEMTKNQVSLSCAVKGFYPSDIAVEWESNGQPENNYKTTPPVLDSDGSFFLVSKLTVDKSRWQEGNVFSCSVMHEALHNRFTQKSLSLSLGGGGGSGGGGSGGGGSGGGGSGGGGSGGGGSGGGGSVKVKFWPRGEEKVVDTSKIAWVLRADKTVMFKYDDNGKKGYGVVLEKDAPKELLDMLARAEREK
KD2 [1]: 2.08 M
ka2 [1]: 6.98e-05 1/RUs
kd2 [1]: 0.000145 s⁻¹
Kd [2]: 1460 nM
koff [3]: 0.148 s⁻¹
kon [4]: 102000 M⁻¹ s⁻¹
koff [5]: 0.00175 s⁻¹
Kd [6]: 2.61 nM
koff [6]: 0.00031 s⁻¹
kon [6]: 119000 M⁻¹ s⁻¹

B5: TPP-66174 (Fc fusion)
chain 1: DVQLVESGGGVVQAGGSLSISCAASGGSLSNYVLGWFRQAPGKEREFVAAINWRGDITIGPPNVEGRFTISRDNAKNTGYLQMNSLAPDDTALYYCGAGTPLNPGAYIYDWSYDYWGRGTLVTVSSDKTHTCPPCPAPEAAGGPSVFLFPPKPKDTLYITREPEVTCVVVDVSQEDPEVQFNWYVDGVEVHNAKTKPREEQFNSTYRVVSVLTVLHQDWLNGKEYKCKVSNKGLPSSIEKTISKAKGQPREPQVYTLPPCQEEMTKNQVSLWCLVKGFYPSDIAVEWESNGQPENNYKTTPPVLDSDGSFFLYSKLTVDKSRWQEGNVFSCSVMHEALHNHYTQKSLSLSLGGGGGSGGGGSGGGGSGGGGSGGGGSGGGGSGGGGSEVQLVESGGGVVQPGGSLRLSCAASGFTFRSFGMSWVRQAPGKGPEWVSSISGSGSDTLYADSVKGRFTISRDNSKNTLYLQMNSLRPEDTALYYCTIGGSLSRSSQGTLVTVSSA
chain 2: DVQLVESGGGVVQAGGSLSISCAASGGSLSNYVLGWFRQAPGKEREFVAAINWRGDITIGPPNVEGRFTISRDNAKNTGYLQMNSLAPDDTALYYCGAGTPLNPGAYIYDWSYDYWGRGTLVTVSSDKTHTCPPCPAPEAAGGPSVFLFPPKPKDTLYITREPEVTCVVVDVSQEDPEVQFNWYVDGVEVHNAKTKPREEQFNSTYRVVSVLTVLHQDWLNGKEYKCKVSNKGLPSSIEKTISKAKGQPREPQVCTLPPSQEEMTKNQVSLSCAVKGFYPSDIAVEWESNGQPENNYKTTPPVLDSDGSFFLVSKLTVDKSRWQEGNVFSCSVMHEALHNRFTQKSLSLSLG
notes: IgG4 FALA Fc (YTE) knob-in-hole, C-terminal ALB23002 via 35GS; also called ALB23002 ISVD-Fc(YTE) polypeptide
KD2 [1]: 2.04 M
ka2 [1]: 55.8 1/RUs
kd2 [1]: 114 s⁻¹
Kd [2]: 121 nM
koff [3]: 0.00786 s⁻¹
kon [4]: 65000 M⁻¹ s⁻¹
koff [5]: 0.0819 s⁻¹
Kd [6]: 21.5 nM
koff [6]: 0.00104 s⁻¹
kon [6]: 48400 M⁻¹ s⁻¹
